Experimental data published in paper PMC2858704.

These sequences were tested against T1, PefR (Gbs1402) (Streptococcus agalactiae NEM316) (UniProt Q8E4J9) (assay: EMSA). Conditions: EMSA: 5% glycerol, 20 mM Tris-HCl pH 8, 50 mM KCl, 0.2 mM MgCl2, 1 mM EDTA, 0.2 mM DTT, 0.3 uM BSA, 15 ul, 37 C 20 min; 8% PAGE in 1x TBE, ethidium bromide ….
T1 sequence: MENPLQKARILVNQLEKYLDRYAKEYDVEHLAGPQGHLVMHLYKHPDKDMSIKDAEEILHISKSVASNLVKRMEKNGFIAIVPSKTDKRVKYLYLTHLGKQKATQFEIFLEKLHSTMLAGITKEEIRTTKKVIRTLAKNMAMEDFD
With “ATTTGTATTTTACTATCATTTACATTAAAAATCAATATAAATTTATAATTAAAAATATAAAAAGCGAACATATATTTTTAATATTAAAAAGTAAGCGAAATCATTTTTTATTTGACGAATGATAGGTTTTTTTTAGAAATATTAATGTAAAAATAGTTCTCACGGTAACTTTTAATTGACAATTAATAAAGGTTGTTTTAAAATAGTTCTCACGATAACTATTAAAGGAGTATTATTATGGAGAATC (double strand) [pefRCD promoter fragment (248 bp)]” the binding was “binds”. “CTTGTTGAGCCGTTGACAACGAAATGTTAAAGCTATTCATCAAAGTTGGGATAGCCGTTCCCAAACTTGTCTGATTTAACACCCCTGCAAATGTAGCAATCAACAATAAGGTGATC (double strand) [control pefA internal fragment (116 bp)]” was tested, and the binding was “no binding”. For “GCGTAGAAGTCATTAAATGGAGAACGCTTTATTAGGAAAAATAGTGGGGAGATATTTTAGAAAAAGGAAATAATGATGTTTTGAAAAAAATAGTTTCTATGAGAATCTTTTTCTTGACAATAAAATTTAGCTATTATAAAATAGTTCTCACGATAACTAAAATAATGATTTTTTCAGAAAATAATATTATTTATTGATTAAAAAATCAAAAAATAACCTTATAAGACCTATTTGTTATTCTTAAAAGATATTAGTTAAAATCAGAAATAGAGATTGGAGATA (double strand) [pefAB promoter fragment (281 bp)]”, the binding was “binds”.
